Assay [1] has as its target T1, human kallikrein 2 (hK2) (human, UniProt P20151 25-261). Nature of the assay: cell-based or functional assay.
For assay [2], the target named is prostate specific antigen (PSA, hK3) (human, UniProt P07288 25-261). Nature of the assay: cell-based or functional assay.
Another assay concerns the target human kallikrein hK1 (human, UniProt P06870 25-262). As to the kind of experiment: cell-based or functional assay.
Assay [3] deals with T2, urokinase plasminogen activator (uPA) (UniProt P00749 21-431, limits assumed). Nature of the assay: cell-based or functional assay.
The target of assay [4] is T1, human kallikrein 2 (hK2). As to the kind of experiment: progress curve, pseudo-first order, fluorogenic substrate. As to the method:
Under these conditions, a fixed amount of enzyme (2 nM) was mixed with different concentrations of inhibitor (0-800 nM) and an excess of substrate (10 μM). Each reaction was made in reaction buffer (50 mM Tris pH 7.5, 150 mM NaCl, 0,05% Triton X-100, 0.01% BSA) at 25° C. for 45 min and the rate of product formation was measured using a FLₓ800 fluorescence 96-well microplate reader (Biotek, USA). In this model, inhibition is considered to be irreversible over the course of reaction and the progress of enzyme activity is expressed by product formation (P), beginning at a rate (vz) and is inhibited over time (t) at a first-order rate (kobs), rate constant that is dependent only on inhibitor concentration.

Assay [5] has as its target T1, human kallikrein 2 (hK2). Nature of the assay: residual enzyme activity against [I]o/[E]o, fluorogenic substrate. On the procedure:
The stoichiometry of inhibition (SI) values were determined for the inhibition of rACTWT and its variants with hK2 and different other enzymes. An initial test was made with a molar excess of rACT (100 fold) over hK2, PSA, hK1, chymotrypsin (Chtr), plasma kallikrein (PK), urokinase (uPA) and human neutrophile elastase (HNE) enzymes. The reaction was carried out for 30 min at 25° C. (90 min at 37° C. for PSA) in reaction buffer (50 mM Tris pH 7.5, 150 mM NaCl, 0,05% Triton X-100, 0.01% BSA) and residual enzyme activity was measured by adding fluorescent substrates (Z-Phe-Arg-AMC for hK1, hK2 and PK, Suc-Ala-Ala-Pro-Phe-AMC for Chtr, Z-Gly-Gly-Arg-AMC for uPA, MeOSuc-Ala-Ala-Pro-Val-AMC for HNE, and CFP-TFRSA-YFP (TFRSA SEQ ID NO:137) for PSA). Activity of enzyme in presence of inhibitors was compared to uninhibited reaction. For reactions where an inhibition was observed, SI was determined by incubating different concentrations of recombinant serpins. Using linear regression analysis of fractional activity (velocity of inhibited enzyme reaction/velocity of uninhibited enzyme reaction) versus the molar ratio of the inhibitor to enzyme ([Iₒ]/[Eₒ]), the stoichiometry of inhibition, corresponding to the abscissa intercept, was obtained.

In assay [6] the target is T1, human kallikrein 2 (hK2). Nature of the assay: cell-based or functional assay. This is another data set of the same source.
In another assay the target is human kallikrein 4 (hK4) (human, UniProt Q9Y5K2 31-254, limits assumed). As to the kind of experiment: cell-based or functional assay.
The target of the next assay is T3, human kallikrein 5 (hK5) (human, UniProt Q9Y337 67-293, limits assumed).
T3 sequence (looked up): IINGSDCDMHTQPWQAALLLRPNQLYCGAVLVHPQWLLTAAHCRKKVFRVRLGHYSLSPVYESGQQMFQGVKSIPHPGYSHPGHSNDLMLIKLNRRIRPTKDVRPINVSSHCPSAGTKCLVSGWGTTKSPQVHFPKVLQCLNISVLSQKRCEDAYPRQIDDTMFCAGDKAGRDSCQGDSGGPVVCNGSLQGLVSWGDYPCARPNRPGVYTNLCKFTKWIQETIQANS
As to the kind of experiment: cell-based or functional assay.

The target in the next assay is human kallikrein 6 (hK6) (human, UniProt Q92876 22-244). Nature of the assay: cell-based or functional assay.
For the next assay, the target named is T4, human kallikrein 8 (hK8) (human, UniProt O60259 33-260).
T4 sequence (looked up): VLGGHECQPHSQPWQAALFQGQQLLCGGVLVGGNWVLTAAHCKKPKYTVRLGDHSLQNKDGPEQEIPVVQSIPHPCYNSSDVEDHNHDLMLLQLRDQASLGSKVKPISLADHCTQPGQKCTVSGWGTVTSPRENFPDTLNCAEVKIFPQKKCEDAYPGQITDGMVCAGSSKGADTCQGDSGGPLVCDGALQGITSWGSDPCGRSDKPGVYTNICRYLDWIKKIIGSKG
Nature of the assay: cell-based or functional assay.

Assay [7] concerns the target T5, human kallikrein 14 (hK14) (human, UniProt Q9P0G3 25-251, limits assumed).
T5 construct: range counted on GenBank AAK48524 (printed), which may differ from the UniProt numbering; also called recombinant hK14
T5 sequence (looked up): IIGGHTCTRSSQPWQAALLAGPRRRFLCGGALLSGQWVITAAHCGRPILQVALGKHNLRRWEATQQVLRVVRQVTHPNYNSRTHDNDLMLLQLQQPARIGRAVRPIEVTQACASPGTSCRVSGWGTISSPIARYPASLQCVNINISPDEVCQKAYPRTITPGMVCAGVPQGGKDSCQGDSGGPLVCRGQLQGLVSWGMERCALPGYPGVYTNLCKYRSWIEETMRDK
Nature of the assay: progress curve; * [I0]/[E0] < 5 * SI. On the procedure: The association rate constants for interactions of hK14, with different inhibitors were determined under pseudo-first order conditions using the progress curve method (Morrison and Walsh, 1988). Under these conditions, a fixed amount of enzyme (2 nM) was mixed with different concentrations of inhibitor (0-80 nM) and an excess of substrate (20 μM). Reactions were performed in reaction buffer (50 mM Tris pH 7.5, 150 mM NaCl, 0.05% Triton X-100, 0.01% BSA) at 37° C. for 45 min and the rate of product formation was measured using a FLₓ800 fluorescence 96-well microplate reader (Biotek, USA) Inhibition is considered to be irreversible over the course of reaction and the progression of enzyme activity is expressed as product formation (P), beginning at a rate (vz) and is inhibited over time (t) at a first-order rate (kobs), where the rate constant is only dependent on the inhibitor concentration.

Assay [8] addresses T5, human kallikrein 14 (hK14). Nature of the assay: residual hK14 activity against [I0]/[E0]. On the procedure:
SI values of rAAT, rACT, and their variants were determined with hK14 incubating the protease with varying concentrations of inhibitor. After an incubation of 4 hours at 37° C. in reaction buffer (50 mM Tris, pH 7.5, 150 mM NaCl, 0.05% Triton X-100, 0.01% BSA), the residual activity was detected by the addition of fluorescent substrate (Boc-Val-Pro-Arg-AMC). Fluorescence was measured with excitation at 340 nm (±15) and emission at 485 nm (±10) in black 96 well plates using a microplate fluorescence reader FLₓ800 (Bio-Tek Instruments, Inc.). The SI value corresponds to the abscissa intercept of the linear regression analysis of fractional velocity (velocity of inhibited enzyme reaction (vi)/velocity of uninhibited enzyme reaction (v₀)) vs. the molar ratio of the inhibitor to enzyme ([I₀]/[E₀]).

In assay [9] the target is human chymotrypsin (Chtr) (human, UniProt P17538 19-263). Nature of the assay: cell-based or functional assay.
Assay [10] has as its target human plasma kallikrein (PK) (human, UniProt P03952 20-638). Nature of the assay: cell-based or functional assay.
The target in assay [11] is T2, urokinase plasminogen activator (uPA). As to the kind of experiment: cell-based or functional assay. The source holds these as a separate data set.
Assay [12] has as its target T6, human neutrophil elastase (HNE) (human, UniProt P08246 30-247, limits assumed).
T6 sequence (looked up): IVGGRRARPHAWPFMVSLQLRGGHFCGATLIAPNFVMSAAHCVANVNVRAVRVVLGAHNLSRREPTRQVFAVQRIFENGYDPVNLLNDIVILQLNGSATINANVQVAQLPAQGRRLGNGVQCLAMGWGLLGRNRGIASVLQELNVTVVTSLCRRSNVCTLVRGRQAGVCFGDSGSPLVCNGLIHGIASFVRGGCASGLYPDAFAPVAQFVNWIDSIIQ
As to the kind of experiment: cell-based or functional assay.

In a further assay the target is thrombin. Nature of the assay: cell-based or functional assay.
In assay [13] the target is T5, human kallikrein 14 (hK14). Nature of the assay: cell-based or functional assay.

These results are taken from patent US20140341881A1 (DERMADIS, published 2014).

One may read the kon as the rate constant with which the complex forms. The low end stands for slower complex formation, the high end for faster complex formation. One may read the % Inhibition as the share of the control response that was lost under treatment.

Residue numbers refer to the chain shown, from its start.

Chain of human kallikrein 4 (hK4) (Q9Y5K2 31-254 limits assumed): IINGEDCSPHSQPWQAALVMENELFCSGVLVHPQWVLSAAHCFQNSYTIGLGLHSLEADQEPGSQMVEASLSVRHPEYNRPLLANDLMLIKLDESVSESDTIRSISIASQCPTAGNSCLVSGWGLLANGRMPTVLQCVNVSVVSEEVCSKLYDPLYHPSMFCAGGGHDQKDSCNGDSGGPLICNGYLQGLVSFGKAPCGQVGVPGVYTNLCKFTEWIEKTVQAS
Chain of human plasma kallikrein (PK) (P03952 20-638 limits assumed): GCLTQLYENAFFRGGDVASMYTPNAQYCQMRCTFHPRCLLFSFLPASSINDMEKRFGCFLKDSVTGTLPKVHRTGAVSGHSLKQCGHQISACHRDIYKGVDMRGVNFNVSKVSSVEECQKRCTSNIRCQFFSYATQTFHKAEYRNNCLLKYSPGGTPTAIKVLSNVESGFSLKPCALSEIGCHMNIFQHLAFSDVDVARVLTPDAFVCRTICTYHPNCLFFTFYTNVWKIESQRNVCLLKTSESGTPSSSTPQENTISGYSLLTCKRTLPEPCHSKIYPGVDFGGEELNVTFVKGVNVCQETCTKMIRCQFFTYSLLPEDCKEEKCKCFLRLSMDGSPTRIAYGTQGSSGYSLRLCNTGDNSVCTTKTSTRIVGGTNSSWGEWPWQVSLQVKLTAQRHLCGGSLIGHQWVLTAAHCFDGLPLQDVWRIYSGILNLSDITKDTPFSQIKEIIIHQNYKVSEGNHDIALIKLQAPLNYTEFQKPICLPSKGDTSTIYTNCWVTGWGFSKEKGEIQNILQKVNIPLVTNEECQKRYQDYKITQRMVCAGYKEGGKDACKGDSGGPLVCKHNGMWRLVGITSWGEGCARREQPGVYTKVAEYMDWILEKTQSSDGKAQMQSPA
Chain of human chymotrypsin (Chtr) (P17538 19-263): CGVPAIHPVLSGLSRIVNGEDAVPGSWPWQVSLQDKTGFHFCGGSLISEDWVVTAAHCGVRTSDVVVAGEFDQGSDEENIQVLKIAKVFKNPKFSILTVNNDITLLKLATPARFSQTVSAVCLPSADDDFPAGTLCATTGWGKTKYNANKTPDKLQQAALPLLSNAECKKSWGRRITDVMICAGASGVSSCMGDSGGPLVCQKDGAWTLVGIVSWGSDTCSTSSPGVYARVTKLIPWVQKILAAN

B1: rACT5.18 (other)
chain: MRGSHHHHHHSRHPNSPLDEENLTQENQDRGTHVDLGLASANVDFAFSLYKQLVLKAPDKNVIFSPLSISTALAFLSLGAHNTTLTEILKGLKFNLTETSEAEIHQSFQHLLRTLNQSSDELQLSMGNAMFVKEQLSLLDRFTEDAKRLYGSEAFATDFQDSAAAKKLINDYVKNGTRGKITDLIKDLDSQTMMVLVNYIFFKAKWEMPFDPQDTHQSRFYLSKKKWVMVPMMSLHHLTIPYFRDEELSCTVVELKYTGNASALFILPDQDKMEEVEAMLLPETLKRWRDSLEFREIGELYLPKFSISRDYNLNDILLQLGIEEAFTSKADLSGITGARNLAVSQVVHKAVLDVFEEGTEASAATAVKITERVSPVETRTIVRFNRPFLMIIVPTDTQNIFFMSKVTNPKQA
notes: recombinant ACT variant, RSL substrate peptide ERVSP; N-terminal His tag, E. coli TG1; also called MD518
With B1, the INHIBITION % with human kallikrein 2 (hK2) [1] worked out at 73%; in assay [2] it was 0%; in the assay with human kallikrein hK1 it was 0%; in assay [3] it was 0%. This molecule also had an association rate constant (kon) with human kallikrein 2 (hK2) [4] of 595 M⁻¹ s⁻¹. In the assay with human kallikrein 2 (hK2) [5], the “SI (stoichiometry of inhibition)” value came to 139.

B2: ACTG1g (other)
chain: B1 chain with I369G, T370S, E371L, V373G, S374A, P375L
In the case of B2, the “% Inhibition” value in the assay with human kallikrein 2 (hK2) [6] was 0%; in the assay with human kallikrein 4 (hK4) it was 0%; with human kallikrein 5 (hK5), 10%; with human kallikrein 6 (hK6), 0%; with human kallikrein 8 (hK8), 0%.

B3: ACTF11 (other)
chain: B1 chain with I369Q, T370R, E371L, V373D, S374A, P375L
With B3, the “% Inhibition” value in the assay with human kallikrein 2 (hK2) [6] was found to be 25%; with human kallikrein 4 (hK4), 45%; in the assay with human kallikrein 5 (hK5), 15%; with human kallikrein 6 (hK6), 0%; in the assay with human kallikrein 8 (hK8), 0%.

B4: ACTE5 (other)
chain: B1 chain with T370N, E371Q, V373S, P375L
B4: the “% Inhibition” value with human kallikrein 2 (hK2) [6] was 0%; with human kallikrein 4 (hK4), 75%; with human kallikrein 5 (hK5), 10%; with human kallikrein 6 (hK6), 0%; in the assay with human kallikrein 8 (hK8), 10%.

B5: rACT8.3 (other)
chain: B1 chain with T370R, E371G, V373S, S374E, P375L
notes: recombinant ACT variant, RSL substrate peptide RGRSE; N-terminal His tag, E. coli TG1; also called MD83; MD 83
In the case of B5, the INHIBITION % with human kallikrein 2 (hK2) [1] worked out at 100%; in [2], 0%; in the assay with human kallikrein hK1, 0%; in [3], 0%. Moreover, the kon with human kallikrein 2 (hK2) [4] was 2440 M⁻¹ s⁻¹. In addition, the “SI (stoichiometry of inhibition)” value with human kallikrein 2 (hK2) [5] is 34.

B6: ACTG1 (other)
chain: B1 chain with I369G, T370S, E371L, V373S, S374A, P375L
Take B6: the “% Inhibition” value with human kallikrein 2 (hK2) [6] came to 15%; with human kallikrein 4 (hK4), 0%; with human kallikrein 5 (hK5), 50%; with human kallikrein 6 (hK6), 20%; with human kallikrein 8 (hK8) it was 0%. In addition, the kon in assay [7] stood at 3200 M⁻¹ s⁻¹. In assay [8], the “SI (stoichiometry of inhibition)” value turned out to be 13.3.

B7: ACTC11D (other)
chain: B1 chain with E371L, V373Q, S374T, P375N, V376D
notes: also called rACTC11D
Consider B7, for which the “% Inhibition” value in assay [9] came to 83%; in assay [10], 0%; in [11], 0%; in [12], 0%; with thrombin, 0%; in [13], 100%. In [7], the kon was determined as 74000 M⁻¹ s⁻¹. In assay [8], the “SI (stoichiometry of inhibition)” value was 2.8.

B8: ACTC11g (other)
chain: B1 chain with E371G, V373Q, S374T, P375N
For B8, the “% Inhibition” value in the assay with human kallikrein 2 (hK2) [6] worked out at 25%; in the assay with human kallikrein 4 (hK4), 0%; with human kallikrein 5 (hK5), 5%; in the assay with human kallikrein 6 (hK6) it was 0%; with human kallikrein 8 (hK8), 0%. Besides, the kon in [7] is 7600 M⁻¹ s⁻¹. Further, in [8], the “SI (stoichiometry of inhibition)” value is 13.8.
